Measurements taken from the DeepSol protein solubility set.

Test: soluble on expression in E. coli; label from the status in PepcDB or PDB records

| Sequence | soluble on expression in E. coli |
| --- | --- |
| MANSAGSMTIFVISDSAGETASKLAAASMAQYPTVDFTLIRRTFVKDEDKLVQALEDAKKAEAMVLHTIINDHLVAIANQFFNEHQLFHFDILTPPVAEIERLTGVAPMREPGALHHLNENYFKRIEAMEFAVKYDDGKDPRGFLEADVLLLGVSRTSKTPLSLFLANKNLKVANLPLIPEAHLPKQLFEMDPKKIVGLTNDPNVLNGIRKERMRAYGLPENTSYSDIEKIRRELAFANDLYQKLGCIVIDVASLSIEETASMILNALNLEDHSYYSTETSEDLEHHHHHH | not soluble |
| MANSITADEIREQFSQAMSAMYQQEVPQYGTLLELVADVNLAVLENNPQLHEKMVNADELARLNVERHGAIRVGTAQELATLRRMFAIMGMYPVSYYDLSQAGVPVHSTAFRPIDDASLARNPFRVFTSLLRLELIENEILRQKAAEILRQRDIFTPRCRQLLEEYEQQGGFNETQAQEFVQEALETFRWHQSATVDEETYRALHNEHRLIADVVCFPGCHINHLTPRTLDIDRVQSMMPECGIEPKILIEGPPRREVPILLRQTSFKALEETVLFAGQKQGTHTARFGEIEQRGVALTPKGRQLYDDLLRNAGTGQDNLTHQMHLQETFRTFPDSEFLMRQQGLAWFRYRLTPSGEAHRQAIHPGDDPQPLIERGWVVAQPITYEDFLPVSAAGIFQSNLGNETQTRSHGNASREAFEQALGCPVLDEFQLYQEAEERSKRRCGLLLEHHHHHH | soluble |
| MANVGGRRKPAADARLEVIQKLFPEAVVDGGIDWELLKRVFGGHERQEAYEFTWPGKAEARRLAELPASGVLRPDQAASKQWETTNNWYIEGDNLEALKLLRTSHAGTIQMIYIDPPYNTGKVLTYKDNWRKGKAVVPSGIQEEARGHVGWLNMMYPRLWVARELLAETGAIFISIDDTEQANLRKMCDEIFGERNFVATFIWQRAFSPVNMNKFASRNHDFILCYAKNIDRLAWYGLPRHPEADVRYANPDNDPRGPWMSGDLSVGPPIPEKIYEIVTPSGRVVSPPNGYCWRVTKERFAELAADNRIWFGKDGNGVPRLKRFLSEVKSTVTPLTIWTHDEVSHSQEAKKELKELFDGLAVMDYPKPVKLIQRMVALTTRDDDPILDFFSGSATTAHAVMQQNAEDGGRRSFIMVQLPERLAETSEAYRVGFRTICDIGRERIRRAGEKIVYETGKTELDIGFKVFRIERTNQPAR | not soluble |
| MANYWLYKSEPFKWSWEMQKAKGETGEEWTGVRNYQARNNMRAMKIGDKGFFYHSNEGLDVVGIVEVCALSHPDSTAEGDLKWDCVDIRAVCDMPQPVSLKDVKANPKLEKMSLVTSMRLSVQPVTEEEYLEVCRMGGLANPPKSPDLEHHHHHH | soluble |
| MAPATQRNRETIAAVLQEYLPSQGSILEIASGTGEHACFFAPLFSPRWWITSDPDPLCRESIMAWRDHQALANFQSPLDLDVNDQVWPVEREILREPVTSIVAINLIHISPWESCLGLLTGAERILPEGGILYLYGPYRQKGVPTAPSNEAFDQSLQSRNPAWGLRQLEDVIGEAGKRNLHNQAIIPMPANNLSVIFQKGLEHHHHHH | soluble |
| MAPKKVLLALTSYNDVFYSDGAKTGVFVVEALHPFNTFRKEGFEVDFVSETGKFGWDEHSLAKDFLNGQDETDFKNKDSDFNKTLAKIKTPKEVNADDYQIFFASAGHGTLFDYPKAKDLQDIASEIYANGGVVAAVCHGPAIFDGLTDKKTGRPLIEGKSITGFTDVGETILGVDSILKAKNLATVEDVAKKYGAKYLAPVGPWDDYSITDGRLVTGVNPASAHSTAVRSIDALKN | soluble |
| MAPSLDSISHSFANGVASAKQAVNGASTNLAVAGSHLPTTQVTQVDIVEKMLAAPTDSTLELDGYSLNLGDVVSAARKGRPVRVKDSDEIRSKIDKSVEFLRSQLSMSVYGVTTGFGGSADTRTEDAISLQKALLEHQLCGVLPSSFDSFRLGRGLENSLPLEVVRGAMTIRVNSLTRGHSAVRLVVLEALTNFLNHGITPIVPLRGTISASGDLSPLSYIAAAISGHPDSKVHVVHEGKEKILYAREAMALFNLEPVVLGPKEGLGLVNGTAVSASMATLALHDAHMLSLLSQSLTAMTVEAMVGHAGSFHPFLHDVTRPHPTQIEVAGNIRKLLEGSRFAVHHEEEVKVKDDEGILRQDRYPLRTSPQWLGPLVSDLIHAHAVLTIEAGQSTTDNPLIDVENKTSHHGGNFQAAAVANTMEKTRLGLAQIGKLNFTQLTEMLNAGMNRGLPSCLAAEDPSLSYHCKGLDIAAAAYTSELGHLANPVTTHVQPAEMANQAVNSLALISARRTTESNDVLSLLLATHLYCVLQAIDLRAIEFEFKKQFGPAIVSLIDQHFGSAMTGSNLRDELVEKVNKTLAKRLEQTNSYDLVPRWHDAFSFAAGTVVEVLSSTSLSLAAVNAWKVAAAESAISLTRQVRETFWSAASTSSPALSYLSPRTQILYAFVREELGVKARRGDVFLGKQEVTIGSNVSKIYEAIKSGRINNVLLKMLA | soluble |
| MAQEIERKFLVSGDFKSFAFAQSRIMQGYICSARGRTVRVRIRDDKGYLTIKGASNESGTSRYEWEKELPLSEAEELMKLCEPGMIDKTRYLVRSGNHIFEVDEFYGENEGLIVAEVELGTEDEAFVKPGFIGEEVTGDVRYYNSHLMKKPYKMW | not soluble |
| MAQGFKITYTDQACLLDIQDPQNKESQSFHYALVPRGVEAENIPADYTVIETPIRSVICMTSLQLSNFIKLEELDAVVGITSTRHLFNKKINDRLKDGSIHKIGIEGNFDNEVIMSVNPDLILISPFKRGGYDALKEVGIPLMPHLGYKEMTPLGQAEWIKFVGLLLGREDKANKQFAAIKKRYNELKELTGLEHHHHHH | not soluble |
| MAQLYFYYSAMNAGKSTSLLQSSYNYRERGMNTLVMTASIDDRYGKGKVASRIGIESDAQVFSSHDNLIEMITAAHQENHLSCVLVDECQFLSKEQVKQLTYIVDKIDIPVLCYGLRTDFQGELFSGSHYLLAWADKLVELKTICHCGRKANMVVRLDGEGKVMREGEQVAIGGNESYESVCRKHFREFIWD | soluble |
| MAQPSTTYKFELNLTDLDRGVYESVKQTIARHPSETEERMTVRLLAYAFWYNEQLAFGRGLSDVDEPALWEKSLDDRVLHWIEVGQPDADRLTWCSRRTERTSLLAYGSLRVWEGKVIPAIKNLKNVNIAAVPQDVLEVLAKDMPRVIKWDVMISEGTVFVTDDRGQHEVQLQWLTGERG | soluble |
| MAQQETPQDKRRRHARVDNVIYANFGAKTTVRTEPEAPEIVESRNFSPVALRIRDLATQEADAGRLKRGRDYARSGHVLNVKFGNSLITADVAGSQNLPFQVSIAFPYLSTDGLSQITQYIAASPDGLNAARHGQLSEDILDLLLGTQVTFRCDCPDHVVCCKHSVAVVTVASEKVEADPLLAFRLRGLDLAQLEQAVTMQARAASTQDLKERFWQGRDLPSLPEPKIAPALDDSDASLLHKAMRLVSYTNIDELRAVSDIEDIYYHLTHEKG | not soluble |
| MAQSVPPGDIQTQPGTKIVFNAPYDDKHTYHIKVINSSARRIGYGIKTTNMKRLGVDPPCGVLDPKEAVLLAVSCDAFAFGQEDTNNDRITVEWTNTPDGAAKQFRREWFQGDGMARRKNLPIEYNP | not soluble |
| MAQTQSPLQWLATTLIRGYQIFISPILGPRCRFNPTCSHYAIEAIKVHGTAKGCWFALKRILKCHPLHPGGSDPVPPKNDRCNKLEHHHHHH | not soluble |
| MAQVAIFKEIFDQVRKDLNCELFYSELKRHNVSHYIYYLATDNIHIVLENDNTVLIKGLKKVVNVKFSRNTHLIETSYDRLKSREITFQQYRENLAKAGVFRWITNIHEHKRYYYTFDNSLLFTESIQNTTQIFPR | not soluble |
| MAQYKGAASEAGRAMHLMKKREKQREQMEQMKQRIAEENIMKSNIDKKFSAHYDAVEAELKSSTVGLVTLNDMKAKQEALVKEREKQLAKKEQSKELQMKLEKLREKERKKEAKRKISSLSFTLEEEEEGGEEEEEAAMYEEEMEREEITTKKRKLGKNPDVDTSFLPDRDREEEENRLREELRQEWEAKQEKIKSEEIEITFSYWDGSGHRRTVKMRKGNTMQQFLQKALEILRKDFSELRSAGVEQLMYIKEDLIIPHHHSFYDFIVTKARGKSGPLFNFDVHDDVRLLSDATVEKDESHAGKVVLRSWYEKNKHIFPASRWEPYDPEKKWDKYTIR | soluble |
| MARAIAIDAPLSAGIRRTKKSPIKRASVGGVKKRFSTGTAGPSRRPTAQPRRQSGGIRTVDRSIPANENREVRINLSNLAHTVHSGDLRQLFAEFKIRNVSVNFNEHGKPVGTGDVTLPKRHADRLIQKFAGVSLDGKEIKFAIIDSANIANRVKFPEAPRRAPSNGRPAQRAPKRQNVKSGKPTGGAGAQKKLKAKKPKREAQPKKTLEELDAELDVYMSKA | not soluble |
| MARDEVRRILPADIKREVLIKDENAETNPDWGFPPEKRPIEMHIQFGVINLDKPPGPTSHEVVAWIKKILNLEKAGHGGTLDPKVSGVLPVALEKATRVVQALLPAGKEYVALMHLHGDVPEDKIIQVMKEFEGEIIQRPPLRSAVKRRLRTRKVYYIEVLEIEGRDVLFRVGVEAGTYIRSLIHHIGLALGVGAHMSELRRTRSGPFKEDETLITLHDLVDYYYFWKEDGIEEYFRKAIQPMEKAVEHLPKVWIKDSAVAAVTHGADLAVPGIAKLHAGIKRGDLVAIMTLKDELVALGKAMMTSQEMLEKTKGIAVDVEKVFMPRDWYPKLWEKRDRSHHHHHH | soluble |
| MARDGGVSCLRRSEMMSVGGIGGIESAPLDLDEVHVLAVDDSLVDRIVIERLLRITSCKVTAVDSGWRALEFLGLDNEKASAEFDRLKVDLIITDYCMPGMTGYELLKKIKESSNFREVPVVIMSSENVLTRIDRCLEEGAQDFLLKPVKLADVKRLRSHLTKDVKLSNGNKRKLPEDSSSVNSSLPPPSPPLTISPESSPPLTVSTESSDSSPPLSPVEIFSTSPLSSPIDDEDDDVLTSSSEESPIRRQKMRSPGLD | not soluble |
| MAREAKKDPNELTVEQKLKTLFQLQTMLSKIDEIKTLRGELPLEVQDLEDEIAGLSTRIDKIKAEVDELKSAIAGKRVEIETAKASVEKYKSQQDNVRNNREYDFLTKEIEFQSLEIELCEKRIKEFSADREEKEAEVVKNEQILSERQKDLEQKKGELDEIISETKQEEEKLRDKAKDLETKIEPRLLQSFKRIRKNSRNGLGVVYVQRDACGGCFNKIPPQRQLDIRSRKKVIVCEYCGRIMIDPELAGVQIEHKVEEAPATTTKRAIRRKTAE | not soluble |
| MAREVKLTKAGYERLMQQLERERERLQEATKILQELMESSDDYDDSGLEAAKQEKARIEARIDSLEDILSRAVILEEGSGEVIGLGSVVELEDPLSGERLSVQVVSPAEANVLDTPMKISDASPMGKALLGHRVGDVLSLDTPKGRREFRVVAIHG | soluble |
| MARGIKLVIFDVDGVLVEVKSSWGYIHRRLGVEEEAMKVKEMFERGSIDYIEWMRLDTELWIRASGGRLHRSRLMEIVGEIPVRKEAFEAVRMLRRMGLRIGLVSSGIDLLVRRVAAEIGADAWASNRLLFDKNGFLQPGGSPLVGVDKRGAVTRMAYELGASLEEVAYVGDSRWDASAMSIVGLPIAYNDGGELDGVARARVDSLLDVPRVVAEWGRARAR | not soluble |
| MARLAIGGGSLCPAYGALRMQPVSTFPIYIVSIARARARLEKMLEGASGLGLDLRPVEGVDGKTISPDDWRDFDRRGFELRNGRHALPGEYGCYASHIKALETFLATDAPVAVIVEDDVAFTPDFSERVKAMVAAMPDDAIVKLTNHRRKGFKARKTSALGDTFGRCIYGPQGSSACYIISRRAAERFLKAARRMTLPFDRALECGWGYGTEVYITDKDFLPFGDPDTLVGTRDEYRGSKFARLKRVPAYLSSFYDNIARYIYAYRLEHHHHHH | soluble |
| MARLSDLIEAFIKQLIDDTDGTIEIQRNELASQFNCVPSQINYVIDTRFTTERGYYVESRRGGGGYIKITRVSIGHEGKNYLMHIINSMGDSISQQSAHVFINNFVDHNVVTEKEAMLLKAATSDKALAAVPVESRGQIRASILKNMLVCLLV | soluble |
